Source: publication PMC4586175 (Oncogene, 2009)

Target: purified GST-RACK1 (human, UniProt P63244 1-317)
Assay: pull-down

binding result: binds
B1: purified His-WRN protein (natural protein)
chain: not shown
